Source: paper PMC5177622, “Multivalent Histone and DNA Engagement by a PHD/BRD/PWWP Triple Reader Cassette Recruits ZMYND8 to K14ac-Rich Chromatin” (Cell Reports, 2016)

Biological target: Histone H3 acetylated at K14 (endogenous, HEK293), P68431
Experiment: anti-FLAG immunoprecipitation and western blot, quantified
Settings: chain shown with the change; HEK293 cells transiently transfected; three biological replicates; anti-H3K14ac blot; parent: est. 1.0; read off a plot

B1: 3×FLAG-ZMYND8 full length, wild type, Q9ULU4-13 N228F (protein)
chain: MDISTRSKDPGSAERTAQKRKFPSPPHSSNGHSPQDTSTSPIKKKKKPGLLNSNNKEQSELRHGPFYYMKQPLTTDPVDVVPQDGRNDFYCWVCHREGQVLCCELCPRVYHAKCLRLTSEPEGDWFCPECEKITVAECIETQSKAMTMLTIEQLSYLLKFAIQKMKQPGTDAFQKPVPLEQHPDYAEYIFHPMDLCTLEKNAKKKMYGCTEAFLADAKWILHNCIIYFGGNHKLTQIAKVVIKICEHEMNEIEVCPECYLAACQKRDNWFCEPCSNPHPLVWAKLKGFPFWPAKALRDKDGQVDARFFGQHDRAWVPINNCYLMSKEIPFSVKKTKSIFNSAMQEMEVYVENIRRKFGVFNYSPFRTPYTPNSQYQMLLDPTNPSAGTAKIDKQEKVKLNFDMTASPKILMSKPVLSGGTGRRISLSDMPRSPMSTNSSVHTGSDVEQDAEKKATSSHFSASEESMDFLDKSTASPASTKTGQAGSLSGSPKPFSPQLSAPITTKTDKTSTTGSILNLNLDRSKAEMDLKELSESVQQQSTPVPLISPKRQIRSRFQLNLDKTIESCKAQLGINEISEDVYTAVEHSDSEDSEKSDSSDSEYISDDEQKSKNEPEDTEDKEGCQMDKEPSAVKKKPKPTNPVEIKEELKSTSPASEKADPGAVKDKASPEPEKDFSEKAKPSPHPIKDKLKGKDETDSPTVHLGLDSDSESELVIDLGEDHSGREGRKNKKEPKEPSPKQDVVGKTPPSTTVGSHSPPETPVLTRSSAQTSAAGATATTSTSSTVTVTAPAPAATGSPVKKQRPLLPKETAPAVQRVVWNSSSKFQTSSQKWHMQKMQRQQQQQQQQNQQQQPQSSQGTRYQTRQAVKAVQQKEITQSPSTSTITLVTSTQSSPLVTSSGSMSTLVSSVNADLPIATASADVAADIAKYTSKMMDAIKGTMTEIYNDLSKNTTGSTIAEIRRLRIEIEKLQWLHQQELSEMKHNLELTMAEMRQSLEQERDRLIAEVKKQLELEKQQAVDETKKKQWCANCKKEAIFYCCWNTSYCDYPCQQAHWPEHMKSCTQSATAPQQEADAEVNTETLNKSSQGSSSSTQSAPSETASASKEKETSAEKSKESGSTLDLSGSRETPSSILLGSNQGSDHSRSNKSSWSSSDEKRGSTRSDHNTSTSTKSLLPKESRLDTFWD
ratio to parent: 0.19
